The record followed here is article PMC5079111 (Cell, 2016).

For the assay, the target named is His-NPM1 (human, UniProt P06748 1-294). Kind of assay: pull-down.
Sequence of His-NPM1 (P06748 whole entry): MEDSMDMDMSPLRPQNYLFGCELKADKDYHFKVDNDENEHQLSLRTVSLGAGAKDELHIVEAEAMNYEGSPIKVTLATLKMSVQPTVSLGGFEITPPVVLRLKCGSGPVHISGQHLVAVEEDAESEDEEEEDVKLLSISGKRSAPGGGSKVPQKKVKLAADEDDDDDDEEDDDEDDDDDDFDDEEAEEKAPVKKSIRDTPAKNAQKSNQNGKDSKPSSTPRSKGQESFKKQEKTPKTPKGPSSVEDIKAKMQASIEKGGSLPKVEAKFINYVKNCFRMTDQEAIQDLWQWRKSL

B1: GR20-FLAG peptide (peptide)
peptide: GRGRGRGRGRGRGRGRGRGRGRGRGRGRGRGRGRGRGRGR
For the molecule B1, the binding result is “binds”.

B2: PR20-FLAG peptide (peptide)
peptide: PRPRPRPRPRPRPRPRPRPRPRPRPRPRPRPRPRPRPRPR
Take B2: the binding result was “binds”.
